Results reported in patent US20210277118A1 (Daiichi Sankyo, published 2021).

Legend:
[1] = molecular target: T1, human CD3 expressed on T cells (Jurkat cells, human pan T cells/PBMC) (human, UniProt P07766 23-207); assay: flow cytometry on human T cells
T1 construct: whole, on cells; On T cells CD3 epsilon stands in the CD3 complex with the gamma, delta and zeta chains and the T-cell receptor; only the epsilon chain is written out; also called CD3+ Jurkat cells; human T cells
Experimental: Frozen human pan T cells or PBMCs were thawed and incubated with either media or serial dilutions of the anti-CD3 scFv-Fc constructs for one hour at 4° C. Commercially available SP34-2 antibody was used as positive controls while untreated cultures were used as negative controls. Following incubation with the anti-CD3 scFv constructs, the cells were washed and stained with a panel of conjugated antibodies specific for CD4, CD8, and IgG-Fc. The samples were acquired on a flow cytometer and analyzed using FlowJo version 10.1 software.

[2] = molecular target: T1, human CD3 expressed on T cells (Jurkat …); assay: cell ELISA on CD3+ Jurkat cells
Experimental: Cells were centrifuged and seeded in a 96-well filter plate in 50% complete culture medium/50% Blocking buffer. Equal volumes of 2× anti-CD3 scFv-Fc constructs or controls were added to cells and incubated for 1 hour. The plate was washed 4 times using vacuum filtration. An HRP-conjugated anti-human IgG Fc gamma specific secondary antibody was added to the wells and further incubated for 1 hour. The plate is washed 7 times by vacuum filtration followed by the addition of TMB substrate at room temperature. The reaction was stopped by adding 1 M sulfuric acid and supernatant was transferred into a clear 96-well plate. Absorbance (450 nm) was read on a Spectramax 340PC plate reader with path-check correction. Binding of the different scFv-Fc constructs to Jurkat cells and the apparent binding affinities are shown in FIG. 7 and Table 7, respectively.

[3] = molecular target: T2, cynomolgus monkey CD3 expressed on T cells (cynomolgus pan T cells/PBMC, HSC-F cell line) (cynomolgus monkey, UniProt Q95LI5 22-198); assay: flow cytometry on cynomolgus T cells
T2 construct: whole, on cells; On T cells in the CD3 complex with the other subunits; only the epsilon chain is written out; also called cyno CD3; cyno T cells
T2 sequence (Q95LI5 22-198): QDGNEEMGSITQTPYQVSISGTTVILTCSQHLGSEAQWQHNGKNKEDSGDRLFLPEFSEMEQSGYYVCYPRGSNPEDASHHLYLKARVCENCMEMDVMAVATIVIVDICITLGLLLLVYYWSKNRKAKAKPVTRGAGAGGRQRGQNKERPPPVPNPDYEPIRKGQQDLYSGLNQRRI
Experimental: (§1) Frozen Cynomolgus monkey PBMCs were thawed then washed with RPMI-1640 media. Pan T cells were then isolated from the PBMCs using a negative isolation kit (Miltenyi Biotec, San Diego, Calif.) as per the manufacturer's instructions. The pan T cells were incubated in media alone or media containing serial dilutions of the anti-CD3 scFv-Fc constructs for one hour at 4° C. Commercially available SP34-2 antibody was used as positive controls while untreated cultures were used as negative controls. Following incubation with the anti-CD3 scFv constructs, the cells were washed and stained with a panel of conjugated antibodies specific for CD4, CD8, and IgG-Fc. The samples were acquired on a flow cytometer and analyzed using FlowJo version 10.1 software.

[4] = molecular target: T3, Recombinant CD3epsilon/delta Fc fusion protein (Sino Biological) (human, UniProt P07766 23-126; P04234 22-105); assay: SPR (ProteOn XPR36), Equilibrium Fit, mean of three runs
T3 construct: Bought reagent; also called recombinant CD3 fusion protein; human CD3 antigen; not shown: Fc of the bought fusion protein; not described
T3 sequence (P07766 23-126, stated change not applied, chain 1 of 2): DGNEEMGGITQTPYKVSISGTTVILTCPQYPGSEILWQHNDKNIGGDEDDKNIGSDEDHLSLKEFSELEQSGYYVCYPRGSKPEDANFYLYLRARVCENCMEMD
T3 sequence (P04234 22-105, stated change not applied, chain 2 of 2): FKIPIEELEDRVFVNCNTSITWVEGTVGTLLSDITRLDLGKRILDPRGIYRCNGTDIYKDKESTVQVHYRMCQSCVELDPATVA
Experimental: (§2) All SPR binding experiments were carried out using a BioRad ProteOn XPR36 instrument (Bio-Rad Laboratories, Hercules, Calif.) at 25° C. with 10 mM HEPES, 150 mM NaCl, 3.4 mM EDTA, and 0.05% Tween 20 at pH 7.4. Recombinant CD3epsilon/delta Fc fusion protein (Sino Biological, Wayne, Pa.) was captured on anti-Fc capture sensorchips. Purified antibodies were indirectly captured on the sensorchip by binding the recombinant CD3 fusion protein when injected at 25 μL/min for 240s (resulting in approx. 500 RUs) following a buffer injection to establish a stable baseline. Resultant KD values were determined from binding isotherms using the Equilibrium Fit model with reported values as the mean of three independent runs.

[5] = molecular target: T3, Recombinant CD3epsilon/delta Fc fusion …; assay: SPR (ProteOn XPR36), CD3epsilon/delta Fc fusion captured on anti-Fc chip, variant injected for 240 s; kinetic constants printed above the sensorgrams
Experimental: as §2

[6] = molecular target: T2, cynomolgus monkey CD3 expressed on T …; assay: flow cytometry on cynomolgus pan T cells gated CD4+, detection with anti-IgG-Fc, geo MFI
Experimental: as §1

T1 sequence (P07766 23-207): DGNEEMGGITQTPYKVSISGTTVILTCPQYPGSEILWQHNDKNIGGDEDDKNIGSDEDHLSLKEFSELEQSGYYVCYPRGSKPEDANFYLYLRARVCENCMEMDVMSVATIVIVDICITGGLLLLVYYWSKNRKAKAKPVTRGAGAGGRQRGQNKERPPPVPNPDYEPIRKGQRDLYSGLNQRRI

B1: variant 19371, monovalent anti-CD3 scFv-heterodimeric Fc (VL hC3E-1_1L1c, VH hC3E-1) (Fc fusion)
scFv: EVQLVESGGGLVQPGGSLRLSCAASGVTFNYYGMSWIRQAPGKGLEWVASITNSGGRIYYPDSVKGRFTISRENTQKTLYLQMNSLRAEDTAVYYCTLDGRDGWVAYWGQGTLVTVSSGGGGSGGGGSGGGGSQIVLTQPPSASGTPGQRVTISCKRNTGNIGSNYVNWYQQLPGTAPKLLIYRDDKRPDGVPDRFSGSKSGTSASLAISGLQSEDEADYYCQSYSSGFIFGGGTKLTVL
notes: scFv order VH-(GGGGS)3-VL on Fc chain A; chain B is Fc only; also called v19371; not shown: The Fc-only chain B is not tied by number to this variant
EC50 [1]: 0.5 nM | EC50 [2]: 1.72 nM | EC50 [3]: 3.4 nM | Kd [4]: 7.1 nM

B2: variant 21825, monovalent anti-CD3 scFv-heterodimeric Fc (VL hC3E-1_1L1d, VH hC3E-1(N53R_D102E)) (Fc fusion)
scFv: EVQLVESGGGLVQPGGSLRLSCAASGVTFNYYGMSWIRQAPGKGLEWVASITRSGGRIYYPDSVKGRFTISRENTQKTLYLQMNSLRAEDTAVYYCTLDGREGWVAYWGQGTLVTVSSGGGGSGGGGSGGGGSQVVLTQPPSASGTPGQRVTISCKRNTGNIGSNYVNWYQQLPGTAPKLLIYRDDKRPDGVPDRFSGSKSGTSASLAISGLQSEDEADYYCQSYSSGFIFGGGTKLTVL
notes: scFv order VH-(GGGGS)3-VL on Fc chain A; chain B is Fc only; also called v21825; not shown: Fc-only chain B is also left out
EC50 [3]: 7 nM

B3: variant 21829, monovalent anti-CD3 scFv-heterodimeric Fc (VL hC3E-1_1L1d, VH hC3E-1(N53R)) (Fc fusion)
scFv: EVQLVESGGGLVQPGGSLRLSCAASGVTFNYYGMSWIRQAPGKGLEWVASITRSGGRIYYPDSVKGRFTISRENTQKTLYLQMNSLRAEDTAVYYCTLDGRDGWVAYWGQGTLVTVSSGGGGSGGGGSGGGGSQVVLTQPPSASGTPGQRVTISCKRNTGNIGSNYVNWYQQLPGTAPKLLIYRDDKRPDGVPDRFSGSKSGTSASLAISGLQSEDEADYYCQSYSSGFIFGGGTKLTVL
notes: scFv order VH-(GGGGS)3-VL on Fc chain A; chain B is Fc only; also called v21829; not shown: Fc-only chain B is also left out
EC50 [1]: 0.4 nM | EC50 [2]: 0.65 nM | EC50 [3]: 1.6 nM | Kd [4]: 3.06 nM | Kd [5]: 3.12 nM | koff [5]: 0.00382 s⁻¹ | kon [5]: 1.22e+06 M⁻¹ s⁻¹

B4: variant 18346, monovalent anti-CD3 scFv-heterodimeric Fc (VL hC3E-1 wildtype, VH hC3E-1 wildtype) (Fc fusion)
scFv: EVQLVESGGGLVQPGGSLRLSCAASGVTFNYYGMSWIRQAPGKGLEWVASITNSGGRIYYPDSVKGRFTISRENTQKTLYLQMNSLRAEDTAVYYCTLDGRDGWVAYWGQGTLVTVSSGGGGSGGGGSGGGGSNFMLTQPHSVSESPGKTVTISCKRNTGNIGSNYVNWYQQHEGSSPTTIIYRDDKRPDGVSDRFSGSIDRSSKSASLTISNLKTEDEADYFCQSYSSGFIFGGGTKLTVL
notes: scFv order VH-(GGGGS)3-VL on Fc chain A; chain B is Fc only; also called v18346; parental construct v18346; not shown: Fc-only chain B is also left out
EC50 [1]: ~0.3 nM | EC50 [2]: 0.34 nM | EC50 [3]: 1.4 nM | Kd [4]: 0.26 nM | EC50 (read off the curve) [6]: ~1 µg/mL | Kd [5]: 0.117 nM | koff [5]: 0.000163 s⁻¹ | kon [5]: 1.39e+06 M⁻¹ s⁻¹

B5: variant 21828, monovalent anti-CD3 scFv-heterodimeric Fc (VL hC3E-1 (D52N), VH hC3E-1(N53S_D102E)) (Fc fusion)
scFv: EVQLVESGGGLVQPGGSLRLSCAASGVTFNYYGMSWIRQAPGKGLEWVASITSSGGRIYYPDSVKGRFTISRENTQKTLYLQMNSLRAEDTAVYYCTLDGREGWVAYWGQGTLVTVSSGGGGSGGGGSGGGGSNFMLTQPHSVSESPGKTVTISCKRNTGNIGSNYVNWYQQHEGSSPTTIIYRNDKRPDGVSDRFSGSIDRSSKSASLTISNLKTEDEADYFCQSYSSGFIFGGGTKLTVL
notes: scFv order VH-(GGGGS)3-VL on Fc chain A; chain B is Fc only; also called v21828; not shown: Fc-only chain B is also left out
EC50 [1]: 1.6 nM | EC50 [2]: ~32.8 nM | EC50 [3]: 104 nM

B6: variant 21826, monovalent anti-CD3 scFv-heterodimeric Fc (VL hC3E-1 (D52N), VH hC3E-1(N53R_D102E)) (Fc fusion)
scFv: EVQLVESGGGLVQPGGSLRLSCAASGVTFNYYGMSWIRQAPGKGLEWVASITRSGGRIYYPDSVKGRFTISRENTQKTLYLQMNSLRAEDTAVYYCTLDGREGWVAYWGQGTLVTVSSGGGGSGGGGSGGGGSNFMLTQPHSVSESPGKTVTISCKRNTGNIGSNYVNWYQQHEGSSPTTIIYRNDKRPDGVSDRFSGSIDRSSKSASLTISNLKTEDEADYFCQSYSSGFIFGGGTKLTVL
notes: scFv order VH-(GGGGS)3-VL on Fc chain A; chain B is Fc only; also called v21826; not shown: Fc-only chain B is also left out
EC50 [1]: 1.7 nM | EC50 [2]: ~36100 nM | EC50 [3]: 2.5 nM

B7: variant 18596, monovalent anti-CD3 scFv-heterodimeric Fc (VL hC3E-1, VH hC3E-1a D102E) (Fc fusion, not shown: a dimerising Fc or GST; small tags and cut ends)
scFv: EVQLVESGGGLVQPGGSLRLSCAASGVTFNYYGMSWIRQAPGKGLEWVASITNSGGRIYYPDSVKGRFTISRENTQKTLYLQMNSLRAEDTAVYYCTLDGREGWVAYWGQGTLVTVSSGGGGSGGGGSGGGGSNFMLTQPHSVSESPGKTVTISCKRNTGNIGSNYVNWYQQHEGSSPTTIIYRDDKRPDGVSDRFSGSIDRSSKSASLTISNLKTEDEADYFCQSYSSGFIFGGGTKLTVL
notes: scFv order VH-(GGGGS)3-VL on Fc chain A; chain B is Fc only; also called v18596
EC50 [1]: 69.5 nM | EC50 [2]: 2.57 nM | EC50 [3]: 172 nM | Kd [4]: 9 nM
